The series in a line: soluble on expression in E. coli; label from the status in PepcDB or PDB records.
For “EEALIKIKQQEIVKNLPANAALVQLKYAGKTTDEPILNNLYKKYQVTANILYGNIEILEKTPVGEMIVILEGAATNIDQALNDLTHSDLTVTVLKRGV”, the “soluble on expression in E. coli” value was “not soluble”.

On to “MTIREEGLIVKDQVLSCYLKGKRCLFVIVKILKDSSNSFLCTVQNKNGDQYVKKWFRKHENNEKLGRPTFKEVEKDWKENKESFMYPNVKALY”, for which the “soluble on expression in E. coli” value is recorded as “not soluble”.

Turning to “MASQLTQRGALFLLFFLTPAVTPTWYAGSGYYPDESYNEVYAEEVPQAPALDYRVPRWCYTLNIQDGEATCYSPKGGNYHSSLGTRCELSCDRGFRLIGRRSVQCLPSRRWSGTAYCRQMRCHALPFITSGTYTCTNGVLLDSRCDYSCSSGYHLEGDRSRICMEDGRWSGGEPVCVDIDPPKIRCPHSREKMAEPEKLTARVYWDPPLVKDSADGTITRVTLRGPEPGSHFPEGEHVIRYTAYDRAYNRASCKFIVKVQVRRCPTLKPPQHGYLTCTSAGDNYGASCEYHCDGGYDRQGTPSRVCQSSRQWSGSPPICAPMKINVNVNSAAGLLDQFYEKQRLLIISAPDPSNRYYKMQISMLQQSTCGLDLRHVTIIELVGQPPQEVGRIREQQLSANIIEELRQFQRLTRSYFNMVLIDKQGIDRDRYMEPVTPEEIFTFIDDYLLSNQELTQRREQRDICE”, the “soluble on expression in E. coli” value was “soluble”.

For the sequence “MLPRGALVLNPFSEKAVSPEDRDMVLRRGIAALDCSWKKVKKSSVIFQTARNHRSLPFLVAANPTNYGKPCILSTAEAVAATLYIVGLKDIASDIMSYFKWGPHFLDLNRELLEAYSRAENSLEVVEIQKKFIGGLEHHHHHH”, the “soluble on expression in E. coli” value was “not soluble”.

As to “NLLIQELCQAVINHFVRYLNINLGALYVSNEVESSLHLLSGYALSKAKKEMPAIRFGDGIVGQVAQERRLLVLENIPGENFVLESGLGDIQPSHILIAPILYQERMLGVIELGSLEPFTENHKEYMSHVMDSIAIAITSAHAREKVRELLEETQR”, the “soluble on expression in E. coli” value is given as “not soluble”.

Regarding “MGSDKIHHHHHHMHYRQYGRTGRLISRFSLGLMRCLDSAAQLEAVLDAAWRLGINHFETAQSYGPSEAYLAQALHSLQLPRDQVIITTKILPDRDPQQMVEAVLRSRDRLGIDSIDCLALHGLNQPEHLQQAIAALPALQTLQAEGVFQHLGFSSHGDRELILEAIATDAFDFVSLHYYLLFQRHAPVIEAAAAKNLGIFIISPVDKGGLLHQPSAQLIEDCQPFSPLALNYRFLLSDRRITTLSFGAAKAEELAVLQDFVDADQPLSLEEAEAIARLEQVRQQRLGRDYCQQCYACLPCPEAINIPEVLRLRNLAIAHDMQAYGRYRYRMFENAGHWFPGQRGSRCTDCGDCLPRCPHHLPIADLVRDADQRLAGAPRRRLWGD”, the “soluble on expression in E. coli” value is “not soluble”.

Regarding “MGSDKIHHHHHHMEKKRILFLANHFITLYSFRKEMIKEMVKKGHELYLSLPKSEENKYFEDLGCHIVETEIDRRGVNPMKDLKLIYFYKKMIPLVNPDIIFSYTIKPNIYGTIASNGKYKQVCNITGTGETFLKRSIVSTICKVLYKLSIKKCYKVFFQNTGDRDFFIKEGLIRENYAMLPGSGCNLQQHVFMPLPEGDEIRFLFIGRVMKLKGIDQYLQAAEIVKKKYPNTKFYIAGWNEQLEYMKLVEEAQKTGSVEYIGFRKDIDQWIEKCHCTILPSHGGEGVPNVLLESSATGRICIGSKINGTMDVIDDGKTGYLFNTGDGEDLARQIEKFIQLSPEEKASMGKVAREKVEREFDRQIVVKAYLDEVTKC”, the “soluble on expression in E. coli” value is “not soluble”.

“MNYSRIAEAIEYIRAHYKEQPGLDEVAEKVHLSPFHFQRIFTEWAGLEHHHHHH”: the “soluble on expression in E. coli” value was “not soluble”.

For “MGGAERVMATLANEFVKRGHQVRLVTLKKAVSAYELDKRVEFIGGGADINSGNFLIKRIQMISAVIKGTLFYRRQLREYKPDIILSFLTYTNLLSVINNRISRVKYPVVVSERCDPRKRSKLLIKLCNIVYPLADCIVCQSKVIQDYFLNKNPKSVTKVIPNPVNEECINKEEIIKRRKLIVAVGRLSNQKNYDLLIDAFSDIANEYSEYRLEIYGEGPERERLQKKINRLGLNDRIQLMGTKTNVMKHIADAQLFVMSSNFEGFPNALAEAMASGLPVISTNFPSGVAKELIIDGENGYVVDINNREQMADAMRKILGDPLTITKMSKNNVLLREKLNVKTVANMWENLFNDILEKRTKNEKN”, the “soluble on expression in E. coli” value was “not soluble”.

In the case of “MEDKNSVIVFKNVSFQYQSDASFTLKDVSFNIPKGQWTSIVGHNGSGKSTIAKLMIGIEKVKSGEIFYNNQAITDDNFEKLRKDIGIVFQNPDNQFVGSIVKYDVAFGLENHAVPYDEMHRRVSEALKQVDMLERADYEPNALSGGQKQRVAIASVLALNPSVIILDEATSMLDPDARQNLLDLVRKVKSEHNITIISITHDLSEAMEADHVIVMNKGTVYKEGTATEIFDNAEELTRIGLDLPFPIKINQMLGHQTSFLTYEGLVDQL”, the “soluble on expression in E. coli” value is reported as “not soluble”.

With “GAMAWGSSWLLLKNLTAQIDGPTLRTLCMQHGPLVSFHPYLNQGIALCKYTTREEANKAQMALNNCVLANTTIFAESPSENEVQSIMQH”, the “soluble on expression in E. coli” value is reported as “soluble”.

On to “MVSTDWKSDLRQRGYRLTPQRQLVLEAVDTLEHATPDDILGEVRKTASGINISTVYRTLELLEELGLVSHAHLGHGAPTYHLADRHHHIHLVCRDCTNVIEADLSVAADFTAKLREQFGFDTDMKHFAIFGRCESCSLKGSTTDS”, for which the “soluble on expression in E. coli” value is reported as “soluble”.

As to “SLPHPAPGPGDPEDPRLAEVVDAVRSSRRYQSVAPETVRRLATSALVASRGDLAEAVKRTKRGLHEIFGAYLPSPPKYDALLRQLRGAVDAATTRPCGHPAPRHVHARLHPRALPILDEFYREVFARCADPASVRDLACGMNPLAAPWMPGSDAFTYHASDIDTRLMEFLDAALETLGVAHDVRVRDLMTGVGEVETDVTLLLKTVPCIEAQGRGQGWDLIDAIRSPLVVVSFPTKSLGQRSKGMFNTYSANFDAWLENRPHDVEQLEFRNELVYFVRKNA”, the “soluble on expression in E. coli” value is “soluble”.

Regarding “MKTEKDKMLAGEMYIADDEELVADRVEAKRLTRLYNEAVETGDERRFTLLNQLLGSSADGKAQINPDFRCDYGYNIHVGKSFFANFNCVILDVCEVRIGDHCMFAPGVHIYTATHPLHPVERNSGKEYGKPVKIGNNVWVGGGAIINPGVSIGDNAVIASGAVVTKDVPNNVVVGGNPAKVIKTIEE”, the “soluble on expression in E. coli” value was “not soluble”.

For “MSMLKIGDIVTRKSHGQDIYFIVTDIQNKDSSKPVYILRGLFYRIIVDAFEDDLVKKDSRSTRINLRRDLTMARSNAYRQIFTSRCFLFSKPRQRPGKVLHIDSSESFLKMCRNLYKEAGITSREYLAPESEQPNIIKRALAETKPDILVVTGHDSLKKGSDPNLLDSYRNSKYFIECVKEARKYQPDYDKLCIFAGACQSYFEAIMQAGANFASSPGRININALDPAIVSEKVALTNKDNYVTPEEVSKLTISGSKGIGGIKTRGHLTVL”, the “soluble on expression in E. coli” value was “soluble”.

As for “MDIIRLGDTTSHGGTVIEAFGQTDLNGKPMAGVGHQVVCPLCKGTFPITEGSALLDVNGVPVALHGMKTACGASLIASGPLGAAEN”, the “soluble on expression in E. coli” value is “not soluble”.

Consider “MAGDPMSLKSYSTPTYWQRVKVACQYLFPQLPITRLAGWLAEQKWGMVTHFIIRIFAKQYNVNLAEAEKTNPADYTTFNEFFLRPLKENARPINQDDQAVCLPADGKISELGQINENRLLQAKGHYFTLETLLANDEEMAESFKNGSFITTYLSPRDYHRVHMPCDATLKKMIYVPGDLFSVNSFLAEHIPNLFARNERVICEFETAFGPMVQILVGATITASISTVWAGIINPPRSKDVVEYNYQTTGETAIHLKKGDEMGAFRLGSTVINLFPQATVELVSHLQAGVETRMGERFAKIIKLEHHHHHH”, for which the “soluble on expression in E. coli” value was “soluble”.

Turning to “MKIVAVTACPTGIAHTYMAADALTKAAPKYNVQIKVETQGAMGIENPLTPYDLSHADKVLIVSDIDIEQPARFEGMKVVKLSIEEVLLNVDKVFLVHCR”, the “soluble on expression in E. coli” value is “not soluble”.

Consider “MLGMYVPDRFALKSSRVQDGMGLYTARRVRKGEKFGPFAGEKRMPEDLDENMDYRLMWEVRGSKGEVLYILDATNPRHSNWLRFVHEAPSQERKNLAAIQEGENIFYLAVDDIETDTELLIGYLDSDVEAEEEEQQALTMTKEGKVDHSKGQLAAGSKGHLGCEEDFACPQCESSFPSEEVLTEHLQSLHQKPTGEKEFKCENCGKKFPVRQALQRHFEQHRKACRGEARFVCKADSCGKRLKSKDALRRHQENVHTGDPKRKLICSVCNRKCTSVSSLQEHRKIHEIFDCQECMKKFISANQLKRHMITHSEKRPYNCEICNKSFKRLDQVGAHKVIHSEDKPYQCKLCGKGFAHRNVYKNHKKTHSEERPFQCDACKALFRTPFSLQRHLLIHNSERTFKCHHCDATFKRKDTLNVHVQVVHERHKKYRCELCNKAFVTPSVLRSHKKTHTGEKEKVCPYCGQKFASSGTLRVHIRSHTGERPYQCPYCEKGFSKNDGLKMHIRTHTREKPYQCSECSKAFSQKRGLDATKRTHTGEKPFQCDVCDLAFSLKKMLIRHKMTHNPNRPMAECHFCHKKFTRNDYLKVHMDNIHGVADS”, for which the “soluble on expression in E. coli” value is “soluble”.

As for “MFDISHMGRLLIEDPEKKLQYFTTNNLDKLSVGKVQYNLLPNEKGGIKDDVTVYMLSEIEFFLCVNAANRQKVINWLSPHLKLRDLSGELVQIALQGPKSEEIISKFYPVSDLKYYRFKVFDKTIISRTGYTGEDGFEIYVSPEEGKELFLELVKLAKPCGLGARDVLRIEAGLPLYGNELSEEITPIEVNLEKFVDFSKEFIGKEAMLKKKVKKKLFGLELTEKGIPRKGYRVFKGDREIGWISSGTYSPTLNKGIALCFVDIEERKEGNEVEIEVRGRRVRGVLRKYPFVRTPAGRYQKLEHHHHHH”, the “soluble on expression in E. coli” value was “not soluble”.

In the case of “MAKGIMLHEVGEQVDQYLLIKSSTKGIASNGKPFLTLMLQDQSGDIEAKLWDAKQSDEVTYAPQTIVKVVGDVHHYRGRTQLKLRNIRPVSEQENVNIDDFLETAPIPKNEMMDTITQYIFEMKNPNIQRITRFLVKKHEAEFMDYPAATKNHHEFVSGLAYHVVSMLNLAKAIADLYPSLDRDLLYAGVILHDLGKVKELSGPVSTSYTVEGNLLGHISIMVTELSKAAEELQIDSEEVLILQHLILSHHGKAEWGSPKPPMVKEAEILHYIDNLDAKMNMMDRALERVKPGEYTERVFALENRSFYKPTFHK”, the “soluble on expression in E. coli” value is recorded as “not soluble”.

Regarding “MKAESSNESFIIGQRVHSLNDSRRVGTVKYVGDVEGYSGTWIGVDWDQDGDGKHNGSVNGVFYFNGRSQSSASFVRSQNLSRGITLLQALELRYRTISTKDEEDEMYVLSAGNRRVSIQLLGGDKIQDKLSRFEELTSASLSYLGVSSLGVSSDLGSILPNLKLLDLTGNLISDWEEIGALCEQLPALTTLNLSCNSLSSDIKSLPQLKNIRVLVLNNSGLSWTQVEILRRSLPGIEELHLMGNMISTITSTSSSDDQAFNSLRLLNLDDNCISDWSEVLKLSQLPCLEQLYLNKNKLSRIFQSVNGTESSEKGSDPFPSLSCLLLGANNIGDLASVDALNGFPQLVDIRLSENPISDPVRGGVPRFVLVARLTKVQVLNGSEVRAREKKDSEIRYVRMVMSKLNDKSGEIELLHPRFYELKKLHGIEDERASAENSGPKNIASGLISITLKCVGPSMGEKPHLTKKLPGSITVGKLKILSENFFKLKSIKPRLFLQEEGSPFPTALDDETATLLDVGICDGSTLLVDEES”, the “soluble on expression in E. coli” value is reported as “soluble”.

On to “MKLVICIVQDDDAGELIDVLTDKGLRVTKLATTGGFLKAGNTTLMIGVEEKAVDGVIETIEDVCKTRQQVVTSPSPVAGSTGVYVPYPIDVEVGGATIFVVDVDKFIKI”, for which the “soluble on expression in E. coli” value is recorded as “not soluble”.

Take “MLANQIKYVILHLTQSIIEYSMANLNCIKAVLAEKGIMSKWLAKTLKKDPATVSKWCNNHSQPDLYTLARIAEVLDVDIHKLICHTKEE”: the “soluble on expression in E. coli” value is given as “not soluble”.
